Reference: article doi:10.1101/2024.07.23.604771

Molecular target: FLAG-2xStrep-PNO1 (UniProt Q9NRX1)
Assay: co-IP

UniProt Q9NRX1, sequence (Q9NRX1 whole entry): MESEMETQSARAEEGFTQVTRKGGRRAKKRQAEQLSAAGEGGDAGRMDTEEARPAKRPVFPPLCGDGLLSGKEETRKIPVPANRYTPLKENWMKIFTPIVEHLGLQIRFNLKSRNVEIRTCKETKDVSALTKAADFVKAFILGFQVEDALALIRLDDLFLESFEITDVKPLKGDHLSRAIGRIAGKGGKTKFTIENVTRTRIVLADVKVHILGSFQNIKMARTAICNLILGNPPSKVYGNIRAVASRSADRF

Substance: EMG1 (from UniProt Q92979 1-244) (natural protein)
- fold increase of association, lytic against latent cells: 3 fold
